The record followed here is publication PMC12749308 (Nature Communications, 2025).

Data set [1] concerns the molecule itself. Description: cryo-EM structure.
Data set [2] concerns the target T1, hPLD3 luminal domain H201A/H416A (hPLD3_HA) (Homo sapiens, UniProt Q8IV08 61-490, H201A;H416A).
T1 sequence: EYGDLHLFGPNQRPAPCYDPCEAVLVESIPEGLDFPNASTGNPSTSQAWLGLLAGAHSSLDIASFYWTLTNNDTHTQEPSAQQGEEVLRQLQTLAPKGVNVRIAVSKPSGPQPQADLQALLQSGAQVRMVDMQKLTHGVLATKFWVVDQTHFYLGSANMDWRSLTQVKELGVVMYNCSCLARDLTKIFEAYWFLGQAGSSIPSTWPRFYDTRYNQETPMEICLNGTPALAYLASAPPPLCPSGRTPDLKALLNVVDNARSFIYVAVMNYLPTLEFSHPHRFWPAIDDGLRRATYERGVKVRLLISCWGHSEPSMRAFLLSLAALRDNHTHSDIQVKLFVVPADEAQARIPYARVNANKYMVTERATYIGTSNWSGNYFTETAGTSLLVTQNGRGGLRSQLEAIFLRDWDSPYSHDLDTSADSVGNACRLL
Kind of data set: EMSA. (In general: In EMSA bound probe runs differently from free probe, usually more slowly.)

Data set [3] concerns the molecule itself. Description: cryo-EM structure. This is another data set of the same source.

Where two headings read alike, the source gives them in different places.

As a reminder, the stoichiometry N is a count of units in the complex or per binding partner.

B1: human PLD3 luminal domain, wild type (domain or fragment, UniProt Q8IV08 61-490, looked up)
chain: EYGDLHLFGPNQRPAPCYDPCEAVLVESIPEGLDFPNASTGNPSTSQAWLGLLAGAHSSLDIASFYWTLTNNDTHTQEPSAQQGEEVLRQLQTLAPKGVNVRIAVSKPSGPQPQADLQALLQSGAQVRMVDMQKLTHGVLHTKFWVVDQTHFYLGSANMDWRSLTQVKELGVVMYNCSCLARDLTKIFEAYWFLGQAGSSIPSTWPRFYDTRYNQETPMEICLNGTPALAYLASAPPPLCPSGRTPDLKALLNVVDNARSFIYVAVMNYLPTLEFSHPHRFWPAIDDGLRRATYERGVKVRLLISCWGHSEPSMRAFLLSLAALRDNHTHSDIQVKLFVVPADEAQARIPYARVNHNKYMVTERATYIGTSNWSGNYFTETAGTSLLVTQNGRGGLRSQLEAIFLRDWDSPYSHDLDTSADSVGNACRLL
modifications: four N-linked glycans observed in the cryo-EM structure (all sites except Asn97)
B1: the “stoichiometry N” value in data set [1] was determined as 2.

For ACGTTCCTGATGCTAAGTATGCACTTCATCGTCAAGCAATGCTATGCAT (ssDNA) [Substrate-I (49 nt)], the binding result in data set [2] is recorded as “binds”.

B2: human PLD4 luminal domain, wild type (domain or fragment, UniProt Q96BZ4 91-506, looked up)
chain: RDSCQLVLVESIPQDLPSAAGSPSAQPLGQAWLQLLDTAQESVHVASYYWSLTGPDIGVNDSSSQLGEALLQKLQQLLGRNISLAVATSSPTLARTSTDLQVLAARGAHVRQVPMGRLTRGVLHSKFWVVDGRHIYMGSANMDWRSLTQVKELGAVIYNCSHLAQDLEKTFQTYWVLGVPKAVLPKTWPQNFSSHFNRFQPFHGLFDGVPTTAYFSASPPALCPQGRTRDLEALLAVMGSAQEFIYASVMEYFPTTRFSHPPRYWPVLDNALRAAAFGKGVRVRLLVGCGLNTDPTMFPYLRSLQALSNPAANVSVDVKVFIVPVGNHSNIPFSRVNHSKFMVTEKAAYIGTSNWSEDYFSSTAGVGLVVTQSPGAQPAGATVQEQLRQLFERDWSSRYAVGLDGQAPGQDCVWQG
modifications: six N-linked glycans observed in the cryo-EM structure
On to B2, for which the “stoichiometry N” value in data set [3] is 4.
